Kd data for one substance are collected here from publication doi:10.1101/2024.01.17.576111.

pKd: −log10 of the molar value.

The test has as its target PbrSYP71ΔTM-His (lacking TM domain of PbrSYP71) (Pyrus bretschneideri). Nature of the test: MST.

For orientation: pKd means the Kd on a negative log10 scale, so that one unit is a factor of ten. Higher therefore signals a low Kd. For “F-actin (Pre-formed Actin Filaments, rabbit skeletal muscle actin) (from UniProt P68135 1-377) (natural protein)”, the pKd was 6.73.
